Measured values from article doi:10.1101/2024.03.15.585201 (bioRxiv, 2024).

Molecular target: the molecule itself
Experiment: cryo-EM structure

B1: BmrA E504A mutant (natural protein)
chain: MPTKKQKSKSKLKPFFALVRRTNPSYGKLAFALALSVVTTLVSLLIPLLTKQLVDGFSMSNLSGTQIGLIALVFFVQAGLSAYATYALNYNGQKIISGLRELLWKKLIKLPVSYFDTNASGETVSRVTNDTMVVKELITTHISGFITGIISVIGSLTILFIMNWKLTLLVLVVVPLAALILVPIGRKMFSISRETQDETARFTGLLNQILPEIRLVKASNAEDVEYGRGKMGISSLFKLGVREAKVQSLVGPLISLVLMAALVAVIGYGGMQVSSGELTAGALVAFILYLFQIIMPMGQITTFFTQLQKSIGATERMIEILAEEEEDTVTGKQIENAHLPIQLDRVSFGYKPDQLILKEVSAVIEAGKVTAIVGPSGGGKTTLFKLLERFYSPTAGTIRLGDEPVDTYSLESWREHIGYVSQESPLMSGTIRENICYGLERDVTDAEIEKAAEMAYALNFIKELPNQFDTEVGERGIMLSGGQRQRIAIARALLRNPSILMLDAATSSLDSQSEKSVQQALEVLMEGRTTIVIAHRLSTVVDADQLLFVEKGEITGRGTHHELMASHGLYRDFAEQQLKMNADLENKAG
- stoichiometry N: 2
